Experimental data taken from IntAct's records for PubMed 20969867.

Columns and labels:
kmt2a_human KMT2A [1] = target: kmt2a_human KMT2A (UniProt Q03164)
kmt2a_human KMT2A [2] = target: kmt2a_human KMT2A (UniProt Q03164); remark: listed apart in the source
kmt2a_human KMT2A [3] = target: kmt2a_human KMT2A (UniProt Q03164); remark: listed apart in the source
kmt2a_human KMT2A [4] = target: kmt2a_human KMT2A (UniProt Q03164); remark: listed apart in the source
kmt2a_human KMT2A [5] = target: kmt2a_human KMT2A (UniProt Q03164); remark: listed apart in the source
kmt2a_human KMT2A [6] = target: kmt2a_human KMT2A (UniProt Q03164); remark: listed apart in the source
kmt2a_human KMT2A [7] = target: kmt2a_human KMT2A (UniProt Q03164); remark: listed apart in the source

Chain of kmt2a_human KMT2A (Q03164 whole entry): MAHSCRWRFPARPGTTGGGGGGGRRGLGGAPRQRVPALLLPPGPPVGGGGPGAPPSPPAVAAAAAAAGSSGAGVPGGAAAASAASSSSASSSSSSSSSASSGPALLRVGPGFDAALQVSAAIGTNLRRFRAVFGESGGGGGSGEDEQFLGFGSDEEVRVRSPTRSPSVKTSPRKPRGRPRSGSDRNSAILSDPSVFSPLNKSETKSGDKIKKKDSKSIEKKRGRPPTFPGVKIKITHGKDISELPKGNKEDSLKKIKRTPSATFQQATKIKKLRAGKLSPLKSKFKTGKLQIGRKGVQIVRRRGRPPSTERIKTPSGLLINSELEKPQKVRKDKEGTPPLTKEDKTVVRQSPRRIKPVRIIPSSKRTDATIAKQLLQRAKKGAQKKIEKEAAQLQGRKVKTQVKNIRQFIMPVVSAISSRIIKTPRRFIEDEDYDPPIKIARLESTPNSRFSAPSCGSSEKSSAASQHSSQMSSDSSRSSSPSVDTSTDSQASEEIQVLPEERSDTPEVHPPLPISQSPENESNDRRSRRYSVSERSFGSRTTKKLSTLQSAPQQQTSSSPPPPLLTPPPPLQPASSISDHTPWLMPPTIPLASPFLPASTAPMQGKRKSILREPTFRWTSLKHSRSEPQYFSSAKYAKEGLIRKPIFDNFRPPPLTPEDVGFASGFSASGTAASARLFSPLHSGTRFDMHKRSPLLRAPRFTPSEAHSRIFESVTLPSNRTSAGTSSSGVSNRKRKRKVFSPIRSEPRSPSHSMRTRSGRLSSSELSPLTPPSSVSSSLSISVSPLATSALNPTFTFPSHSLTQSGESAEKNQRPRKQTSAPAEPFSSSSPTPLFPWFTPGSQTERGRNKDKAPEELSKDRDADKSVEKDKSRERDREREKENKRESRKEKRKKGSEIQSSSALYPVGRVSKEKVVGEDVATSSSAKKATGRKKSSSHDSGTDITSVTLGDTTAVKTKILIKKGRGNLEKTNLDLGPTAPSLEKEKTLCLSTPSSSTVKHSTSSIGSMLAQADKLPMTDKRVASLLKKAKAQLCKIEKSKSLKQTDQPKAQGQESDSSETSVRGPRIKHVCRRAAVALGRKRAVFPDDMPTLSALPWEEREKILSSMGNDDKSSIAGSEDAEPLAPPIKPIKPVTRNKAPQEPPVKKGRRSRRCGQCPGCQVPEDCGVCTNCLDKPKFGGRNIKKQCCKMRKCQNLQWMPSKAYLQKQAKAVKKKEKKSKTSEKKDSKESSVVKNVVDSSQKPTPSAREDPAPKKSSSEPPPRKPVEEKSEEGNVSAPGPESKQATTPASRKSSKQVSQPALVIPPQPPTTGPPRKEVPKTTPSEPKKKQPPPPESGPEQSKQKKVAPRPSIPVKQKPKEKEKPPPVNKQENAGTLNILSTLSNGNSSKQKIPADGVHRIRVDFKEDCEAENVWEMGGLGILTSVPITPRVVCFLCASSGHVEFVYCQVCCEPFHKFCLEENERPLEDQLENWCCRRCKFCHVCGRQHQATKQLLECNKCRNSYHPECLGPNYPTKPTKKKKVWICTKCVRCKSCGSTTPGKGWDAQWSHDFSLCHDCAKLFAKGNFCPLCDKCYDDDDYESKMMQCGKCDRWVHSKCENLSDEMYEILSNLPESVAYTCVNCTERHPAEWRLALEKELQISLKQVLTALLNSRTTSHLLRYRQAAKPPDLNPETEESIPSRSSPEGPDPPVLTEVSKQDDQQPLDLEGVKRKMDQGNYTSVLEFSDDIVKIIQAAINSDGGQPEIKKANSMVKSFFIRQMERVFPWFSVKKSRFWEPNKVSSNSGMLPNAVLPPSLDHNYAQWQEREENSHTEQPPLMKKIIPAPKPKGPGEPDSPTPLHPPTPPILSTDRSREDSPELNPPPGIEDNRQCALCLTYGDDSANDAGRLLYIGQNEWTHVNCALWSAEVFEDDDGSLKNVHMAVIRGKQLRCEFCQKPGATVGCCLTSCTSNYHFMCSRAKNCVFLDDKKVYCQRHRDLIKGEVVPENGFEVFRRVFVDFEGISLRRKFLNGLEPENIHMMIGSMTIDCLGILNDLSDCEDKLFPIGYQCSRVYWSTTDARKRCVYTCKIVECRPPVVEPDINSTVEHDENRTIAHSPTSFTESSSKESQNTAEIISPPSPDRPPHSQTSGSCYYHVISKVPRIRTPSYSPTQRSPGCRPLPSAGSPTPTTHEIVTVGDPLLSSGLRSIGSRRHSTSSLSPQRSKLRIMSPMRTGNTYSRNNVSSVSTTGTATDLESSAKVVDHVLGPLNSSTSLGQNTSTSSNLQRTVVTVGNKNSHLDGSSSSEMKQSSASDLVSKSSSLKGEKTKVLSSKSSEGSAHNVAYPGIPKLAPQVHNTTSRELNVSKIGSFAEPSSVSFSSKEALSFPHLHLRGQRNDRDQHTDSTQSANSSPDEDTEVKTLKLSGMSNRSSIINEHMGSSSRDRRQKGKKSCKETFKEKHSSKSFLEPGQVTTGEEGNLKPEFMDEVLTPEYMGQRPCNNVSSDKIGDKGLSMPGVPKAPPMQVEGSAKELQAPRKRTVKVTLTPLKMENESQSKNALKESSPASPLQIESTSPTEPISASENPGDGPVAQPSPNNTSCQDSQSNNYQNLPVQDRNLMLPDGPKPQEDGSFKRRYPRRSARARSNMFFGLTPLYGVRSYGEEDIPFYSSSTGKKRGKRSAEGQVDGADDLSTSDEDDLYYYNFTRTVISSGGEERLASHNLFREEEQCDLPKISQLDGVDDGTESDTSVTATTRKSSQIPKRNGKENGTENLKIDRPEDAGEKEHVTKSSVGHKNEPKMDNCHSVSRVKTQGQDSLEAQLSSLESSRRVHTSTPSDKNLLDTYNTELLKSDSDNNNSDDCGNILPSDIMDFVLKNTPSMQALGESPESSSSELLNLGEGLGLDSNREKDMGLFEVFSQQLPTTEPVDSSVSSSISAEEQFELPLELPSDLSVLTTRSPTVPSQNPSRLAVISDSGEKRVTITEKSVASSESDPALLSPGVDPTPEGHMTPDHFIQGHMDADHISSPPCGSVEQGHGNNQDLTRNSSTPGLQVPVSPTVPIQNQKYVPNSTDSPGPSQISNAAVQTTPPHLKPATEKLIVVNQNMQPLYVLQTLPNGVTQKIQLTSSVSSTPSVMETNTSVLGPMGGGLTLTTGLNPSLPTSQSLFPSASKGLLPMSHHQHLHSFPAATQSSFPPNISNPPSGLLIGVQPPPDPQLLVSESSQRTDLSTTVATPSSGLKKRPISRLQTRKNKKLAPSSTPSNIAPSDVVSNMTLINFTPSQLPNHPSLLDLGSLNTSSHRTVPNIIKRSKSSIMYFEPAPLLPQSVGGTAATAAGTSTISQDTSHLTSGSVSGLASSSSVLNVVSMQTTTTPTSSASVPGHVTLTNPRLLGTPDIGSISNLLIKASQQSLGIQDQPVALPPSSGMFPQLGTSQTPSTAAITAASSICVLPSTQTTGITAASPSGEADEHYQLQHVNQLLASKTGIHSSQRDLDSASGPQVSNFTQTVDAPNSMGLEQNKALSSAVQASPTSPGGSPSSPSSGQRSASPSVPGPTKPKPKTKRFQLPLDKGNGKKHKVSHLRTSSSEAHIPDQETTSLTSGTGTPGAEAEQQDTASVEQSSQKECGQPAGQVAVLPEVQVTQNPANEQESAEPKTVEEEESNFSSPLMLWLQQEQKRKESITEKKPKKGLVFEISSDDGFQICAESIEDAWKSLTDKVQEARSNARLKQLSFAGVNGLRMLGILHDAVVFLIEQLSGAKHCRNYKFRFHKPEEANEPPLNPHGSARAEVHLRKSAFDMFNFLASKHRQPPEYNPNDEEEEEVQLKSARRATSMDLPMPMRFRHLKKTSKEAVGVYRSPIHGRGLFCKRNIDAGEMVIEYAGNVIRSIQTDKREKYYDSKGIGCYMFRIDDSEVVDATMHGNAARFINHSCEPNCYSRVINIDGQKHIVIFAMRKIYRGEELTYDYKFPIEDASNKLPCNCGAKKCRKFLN

## Histone lysine acetyltransferase CREBBP (Mus musculus), P45481 F612A
kmt2a_human KMT2A [1]
  effect of a mutation on the interaction: decreasing interaction

## Histone lysine acetyltransferase CREBBP (Mus musculus), P45481 L628A
kmt2a_human KMT2A [2]
  effect of a mutation on the interaction: disrupting interaction
kmt2a_human KMT2A [3]
  effect of a mutation on the interaction: decreasing interaction

## Histone lysine acetyltransferase CREBBP (Mus musculus), P45481 L664A
kmt2a_human KMT2A [4]
  effect of a mutation on the interaction: decreasing interaction

## Histone lysine acetyltransferase CREBBP (Mus musculus), P45481 R624A
kmt2a_human KMT2A [5]
  effect of a mutation on the interaction: decreasing interaction

## Histone lysine acetyltransferase CREBBP (Mus musculus), P45481 R668A
kmt2a_human KMT2A [6]
  effect of a mutation on the interaction: decreasing interaction

## Histone lysine acetyltransferase CREBBP (Mus musculus), P45481 Y631A
kmt2a_human KMT2A [7]
  effect of a mutation on the interaction: decreasing interaction
